Source: doi:10.1101/2021.05.01.442157

Target: amyloid β precursor-like protein 1 (Aplp1), on transfected SH-SY5Y cells (UniProt Q03157)
Test: cell surface-binding assay

UniProt Q03157, sequence (Q03157 39-654): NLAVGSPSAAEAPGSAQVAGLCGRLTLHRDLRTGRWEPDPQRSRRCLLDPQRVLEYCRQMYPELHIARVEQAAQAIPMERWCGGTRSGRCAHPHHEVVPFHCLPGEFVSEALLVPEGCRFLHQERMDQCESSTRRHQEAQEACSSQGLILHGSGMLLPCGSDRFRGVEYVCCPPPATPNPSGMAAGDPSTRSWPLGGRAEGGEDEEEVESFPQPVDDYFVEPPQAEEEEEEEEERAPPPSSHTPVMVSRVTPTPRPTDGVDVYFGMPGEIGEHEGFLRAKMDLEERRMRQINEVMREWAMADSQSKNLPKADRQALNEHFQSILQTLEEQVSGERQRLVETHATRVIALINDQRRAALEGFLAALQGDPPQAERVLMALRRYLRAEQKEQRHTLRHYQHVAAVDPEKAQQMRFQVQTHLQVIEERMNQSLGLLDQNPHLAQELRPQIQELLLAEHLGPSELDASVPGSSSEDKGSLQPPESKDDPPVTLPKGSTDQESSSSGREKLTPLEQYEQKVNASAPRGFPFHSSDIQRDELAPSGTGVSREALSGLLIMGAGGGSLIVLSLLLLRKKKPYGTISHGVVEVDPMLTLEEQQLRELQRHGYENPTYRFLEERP

Kd: > 3000 nM
Substance: β-amyloid-biotin PFF (peptide)
